Columns and labels:
[1] = target: SmMTAP Q289L mutant (Schistosoma mansoni); assay: crystal structure
[2] = target: SmMTAP S12T/N87T double mutant (Schistosoma mansoni); assay: crystal structure
[3] = target: SmMTAP N87T mutant (Schistosoma mansoni); assay: crystal structure
[4] = target: SmMTAP S12T mutant (Schistosoma mansoni); assay: crystal structure
[5] = target: T1, SmMTAP (Schistosoma mansoni, UniProt I0B503); assay: X-ray crystal structure; type: binding
T1 construct: trimer; adult worm cDNA, corrected 3' end versus gene model Smp_028190
T1 sequence (I0B503 1-299): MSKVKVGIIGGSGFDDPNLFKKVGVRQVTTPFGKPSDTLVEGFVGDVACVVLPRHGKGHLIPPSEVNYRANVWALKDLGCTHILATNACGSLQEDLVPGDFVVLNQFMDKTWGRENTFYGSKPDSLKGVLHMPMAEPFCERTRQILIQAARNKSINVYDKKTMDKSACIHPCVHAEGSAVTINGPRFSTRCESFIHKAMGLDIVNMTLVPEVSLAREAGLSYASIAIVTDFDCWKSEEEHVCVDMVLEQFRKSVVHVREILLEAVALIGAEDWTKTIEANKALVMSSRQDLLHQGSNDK

[6] = target: Schistosoma mansoni 5'-deoxy-5'-methylthioadenosine phosphorylase, wild type (Schistosoma mansoni); assay: crystal structure; hanging drop at 18°C, 100 mM Bis-tris or MES pH 6.1-6.7, 14-18% PEG 3350, protein 6 mg/mL; apo or with adenine, MTA, tubercidin, sulphate; one or two trimers in the asymmetric unit
[7] = substrate: O=P(O)(O)O; assay: purified protein; settings: 100 mM Hepes pH 7.4, room temperature, nucleoside co-substrate not stated
[8] = substrate: Nc1ncnc2c1ncn2[C@@H]1O[C@H](CO)[C@@H](O)[C@H]1O; assay: xanthine oxidase coupled assay, A305; type: biochemical, Schistosoma mansoni; settings: 100 mM potassium phosphate pH 7.4, room temperature
Text: (§1) xanthine oxidase coupled assay, A305 on SmMTAP

[9] = substrate: CSC[C@H]1O[C@@H](n2cnc3c(N)ncnc32)[C@H](O)[C@@H]1O; assay: xanthine oxidase coupled assay, A305; type: biochemical, Schistosoma mansoni; settings: 100 mM potassium phosphate pH 7.4, room temperature
Text: as §1

[10] = substrate: Nc1ncnc2c1ncn2[C@H]1C[C@H](O)[C@@H](CO)O1; assay: xanthine oxidase coupled assay, A305; type: biochemical, Schistosoma mansoni; settings: 100 mM potassium phosphate pH 7.4, room temperature
Text: as §1

Work on SmMTAP Q289L mutant (enzyme) yielded a stoichiometry N [1] of 3.

SmMTAP S12T/N87T double mutant (enzyme) showed a stoichiometry N [2] of 3.

SmMTAP N87T mutant (enzyme) showed a stoichiometry N [3] of 3.

Molecule SmMTAP S12T mutant (enzyme) has a stoichiometry N [4] of 3.

`Nc1ncnc2c1ccn2[C@@H]1O[C@H](CO)[C@@H](O)[C@H]1O` [tubercidin] was tested, and the X-ray crystal structure ([5]; active site, crystals grown with 5 mM ligand) was “In the MTAP tubercidin complex, all of the active sites are occupied”.

In the case of `Nc1ncnc2[nH]cnc12` [adenine], the X-ray crystal structure ([5]; base binding site, grown at pH 6.1-6.7, PEG 3350) is reported as “the only WT structure whose BBS are all occupied is the orthorhombic SmMTAP adenine complex”.

For “Schistosoma mansoni 5'-deoxy-5'-methylthioadenosine phosphorylase, wild type (enzyme)”, the stoichiometry N [6] was 3.

B1: SmMTAP (Schistosoma mansoni) (protein)
chain: MSKVKVGIIGGSGFDDPNLFKKVGVRQVTTPFGKPSDTLVEGFVGDVACVVLPRHGKGHLIPPSEVNYRANVWALKDLGCTHILATNACGSLQEDLVPGDFVVLNQFMDKTWGRENTFYGSKPDSLKGVLHMPMAEPFCERTRQILIQAARNKSINVYDKKTMDKSACIHPCVHAEGSAVTINGPRFSTRCESFIHKAMGLDIVNMTLVPEVSLAREAGLSYASIAIVTDFDCWKSEEEHVCVDMVLEQFRKSVVHVREILLEAVALIGAEDWTKTIEANKALVMSSRQDLLHQGSNDK
notes: trimer; adult worm cDNA, corrected 3' end versus gene model Smp_028190
Work on B1 yielded a Km [7] of 65.58 ± 4.69 µM, a Vmax [7] of 0.0358 µM/min and a kcat [7] of 478 s⁻¹. For the same molecule, the kcat/Km [7] was 7.28e+06 M⁻¹ s⁻¹, the Km [8] was 3.14 ± 0.16 µM and the Vmax [8] was 0.0501 µM/min. It also gave a kcat [8] of 334 ± 6.84 s⁻¹, a kcat/Km [8] of 1.06e+08 ± 5.84e+06 M⁻¹ s⁻¹ and a Km [9] of 3.63 ± 0.14 µM. It also gave a Vmax [9] of 0.0666 µM/min, a kcat [9] of 444 ± 5.72 s⁻¹ and a kcat/Km [9] of 1.22e+08 ± 4.97e+06 M⁻¹ s⁻¹. For the same molecule, the Km [10] was 3.97 ± 0.41 µM, the Vmax [10] was 0.0841 µM/min and the kcat [10] was 224 ± 11.3 s⁻¹. The kcat/Km [10] was 5.65e+07 ± 6.49e+06 M⁻¹ s⁻¹.
